In publication doi:10.1101/2023.06.13.544671:

Molecular target: RSC chromatin remodeling complex with Sth1-3xFlag-HaloTag (S. cerevisiae) (UniProt P32597)
Assay: two-colour single-molecule colocalisation on DNA (optical tweezers with confocal microscopy); RSC-JFX554 with ISW2-JFX650, or RSC-JFX554 with RSC-JFX650, diffusing on naked lambda DNA stretched to 5 pN; 10 mM Tris pH 7.4, 50 mM KCl, 3 mM MgCl2, 0.1 mg/ml BSA, Trolox; colocalisation threshold 0.31 um (RSC-RSC) and 0.29 um (RSC-ISW2); single exponential fits of dwell times

A half-life of long colocalisation with co-diffusion, on DNA of 0.7 s was found for “RSC chromatin remodeling complex with Sth1-3xFlag-HaloTag (from UniProt P32597 1-1359)” in this work.

A half-life of long colocalisation with co-diffusion, on DNA of 0.68 s was found for “ISW2 chromatin remodeling complex with Isw2-3xFlag-HaloTag (from UniProt Q08773 1-1120)” in this work.
